Paper doi:10.64898/2025.12.11.693820, “DNA binding and lesion recognition by the bacterial interstrand DNA crosslink glycosylase AlkX”

Target: AbaAlkX Y300F (Acinetobacter baumannii, UniProt A0A0D5YK62 1-385, Y300F;V301L)
Assay: EMSA; 10 nM DNA; binding unaffected relative to WT
Settings: protein: recombinant; tags: His6-SUMO tag cleaved (3C); label: Cy5 on strand 1; FAM on strand 2 (both printed at 5' end); blunt; covalently crosslinked strands

B1: 2F-NM8-ICL DNA (dsDNA)
DNA 1: TTTATTTTTATTTGACTTTTATTTTT
DNA 2: AAAAATAAAAGTCAAATAAAAATAAA
  binding result: binds
